According to patent US20250325630A1, “HOMODIMER FUSION PROTEINS FOR TREATING ATOPIC DERMATITIS” (Intervet Inc., priority 2021, published 2025):

B1: c10A12 H2L6: caninized rat 10A12 anti-canine IL-31Rα antibody; likely c10A12VH2-cIgGBm (SEQ ID NO: 27) with c10A12VL6-cCl (SEQ ID NO: 31) (antibody)
heavy: EVQLVESGGDLVKPGGSLRLSCAASGFTFSNYYMAWVRQAPGKGLQWVASISTGGGNTYYRDSVKGRFTISRDNAKNTLYLQMNSLRAEDTAMYYCARHGTLYFDYWGQGTLVTVSSASTTAPSVFPLAPSCGSTSGSTVALACLVSGYFPEPVTVSWNSGSLTSGVHTFPSVLQSSGLYSLSSMVTVPSSRWPSETFTCNVAHPASKTKVDKPVPKRENGRVPRPPDCPKCPAPEMLGGPSVFIFPPKPKDTLLIARTPEVTCVVVALDPEDPEVQISWFVDGKQMQTAKTQPREEQFAGTYRVVSVLPIGHQDWLKGKQFTCKVNNKALPSPIERTISKARGQAHQPSVYVLPPSREELSKNTVSLTCLIKDFFPPDIDVEWQSNGQQEPESKYRTTPPQLDEDGSYFLYSKLSVDKSRWQRGDTFICAVMHEALHNHYTQESLSHSPGK
light: QPVLTQPPSLSASLGTTARLTCERSSGDIGDSYVSWYQQKPGSPPRDVIYVDDQRPSEVSKSFSGSKDTSANAGLLLISGLQPEDEADYFCQSYDSNIDGPVFGGGTHLTVLGQPKASPSVTLFPPSSEELGANKATLVCLISDFYPSGVTVAWKADGSPVTQGVETTKPSKQSNNKYAASSYLSLTPDKWKSHSSFSCLVTHEGSTVEKKVAPAECS
B2: c44E2 H5k1: caninized rat 44E2 anti-canine IL-31Rα antibody; likely c44E2VH5-cIgGBm (SEQ ID NO: 43) with c44E2VL1-cCk (SEQ ID NO: 45) (antibody)
heavy: ELTLQESGPGLVKPSQTLSLTCTVSGFSLTSNGVSWIRQRPGRGLEWMGAISSGGSTYYNSVLKSRISITADTAKNQFSLQLSSMTTEDTAVYYCARRLSGYNYVPFAYWGQGTLVTVSSASTTAPSVFPLAPSCGSTSGSTVALACLVSGYFPEPVTVSWNSGSLTSGVHTFPSVLQSSGLYSLSSMVTVPSSRWPSETFTCNVAHPASKTKVDKPVPKRENGRVPRPPDCPKCPAPEMLGGPSVFIFPPKPKDTLLIARTPEVTCVVVALDPEDPEVQISWFVDGKQMQTAKTQPREEQFAGTYRVVSVLPIGHQDWLKGKQFTCKVNNKALPSPIERTISKARGQAHQPSVYVLPPSREELSKNTVSLTCLIKDFFPPDIDVEWQSNGQQEPESKYRTTPPQLDEDGSYFLYSKLSVDKSRWQRGDTFICAVMHEALHNHYTQESLSHSPGK
light: EIVMTQSPASLSLSQEEKVTITCKASQNIYKHLAWYQQKPGQAPKLLIYNANSLQTGVPSRFSGSGSGTDFSFTISSLEPEDVAVYYCQQYYSGDTFGAGTKVELKRNDAQPAVYLFQPSPDQLHTGSASVVCLLNSFYPKDINVKWKVDGVIQDTGIQESVTEQDKDSTYSLSSTLTMSSTEYLSHELYSCEITHKSLPSTLIKSFQRSECQRVD
B3: cIL-4Rα-13Rα2 ZW1-cFc (Fc fusion)
chain 1: VKVLHEPSCFSDYISTSVCQWKMDHPTNCSAELRLSYQLDFMGSENHTCVPENREDSVCVCSMPIDDAVEADVYQLDLWAGQQLLWSGSFQPSKHVKPRTPGNLTVHPNISHTWLLMWTNPYPTENHLHSELTYMVNVSNDNDPEDFKVYNVTYMGPTLRLAASTLKSGASYSARVRAWAQTYNSTWSDWSPSTTWLNYYEPWEQHLPPKRENGRVPRPPDCPKCPAPEMLGGPSVFIFPPKPKDTLLIARTPEVTCVVVDLDPEDPEVQISWFVDGKQMQTAKTQPREEQFNGTYRVVSVLPIGHQDWLKGKQFTCKVNNKALPSPIERTISKARGQAHQPSVYVYPPSREELSKNTVSLTCLIKDFFPPDIDVEWQSNGQQEPESKYRTTPPQLDEDGSYALVSKLSVDKSRWQRGDTFICAVMHEALHNHYTQESLSHSPGK
chain 2: SMLSNAEIKVNPPQDFEIVDPGYLGYLSLQWQPPLFPDNFKECTIEYELKYRNIDSENWKTIITKNLHYKDGFDLNKGIEAKINTLLPAQCTNGSEVRSSWAETTYWTSPQGNRETKIQDMDCVYYNWQYLVCSWKPGMGVHFDTNYQLFYWYEGLDHSAECTDYIKVNGKNMGCRFPYLESSDYKDFYICVNGSSESQPIRPSYFIFQLQNIVKPMPPDYLSLTVKNSEEINLKWNMPKGPIPAKCFIYEIEFTEDGTTWVTTTVENEIQITRTSNESQKLCFLVRSKVNIYCSDDGIWSEWSDEQCWKGDIWKETPKRENGRVPRPPDCPKCPAPEMLGGPSVFIFPPKPKDTLLIARTPEVTCVVVDLDPEDPEVQISWFVDGKQMQTAKTQPREEQFNGTYRVVSVLPIGHQDWLKGKQFTCKVNNKALPSPIERTISKARGQAHQPSVYVLPPSREELSKNTVSLLCLIKDFFPPDIDVEWQSNGQQEPESKYLTWPPQLDEDGSYFLYSKLSVDKSRWQRGDTFICAVMHEALHNHYTQESLSHSPGK
notes: also called cIL4Rα-IL13Rα2_ZW1-cFc; cIL-4Rα-IL13Rα2_ZW1-cFc

Assays:
canine IL-31Rα = assay: ELISA binding of chimeric and caninized antibodies to canine IL-31Rα; details: FIG. 1-3, in words
Description: The nucleotide and deduced amino acid sequence of the HC and LC of selected rat antibodies reactive with canine IL-31Rα was determined. The amino acid sequences representing the 3 HC CDRs and 3 LC CDRs for each antibody also were determined. These CDRs were used to develop caninized antibodies that bind canine IL-31Rα ECD. The binding of caninized antibodies to IL-31Rα was determined by ELISA as follows:
• 1. Anti-Dog IgG (cFc specific)-Peroxidase (Sigma-Aldrich SAB3700109-1.5 MG) • 2. TMB-ELISA Substrate (Thermo-Fisher Cat #34028) • 3. PBS pH7.4 (Thermo-Fisher Cat #10010001) • 4. Tris Buffered Saline with Tween 20 (TBST) (Sigma-Aldrich T9039-10PAK)
• 1. Coat immunoplates by cIL-31Rα in PBS buffer at 1 μg/mL, 100 μL/well. Incubate the plates at 37° C. for 1-2 hrs or 4° C. overnight. • 2. Wash the plates 3 times by TBST buffer. • 3. Block the plates by blocking buffer (0.5% BSA in TBST) for 45-60 minutes at room temperature. • 4. Three-fold dilute anti-cIL31-Ra antibodies with blocking buffer in dilution plates and transfer the diluted antibodies into the cIL-31Rα coated plates, incubate 45-60 minutes at room temperature. • 5. Wash the plates 3 times by TBST. • 6. Add 1:2000 diluted HRP conjugated anti-dog IgG Fc into the plates, incubate 45-60 minutes at room temperature. • 7. Wash the plates 3 times by TBST. • 8. […] Read the plates by plate reader at […].

canine IL-13 [1] = biological target: T1, canine IL-13 (canine, UniProt Q9N0W9 19-131, limits assumed, biotin-labeled in the Octet assay (site not stated)); assay: cell-based or functional assay
T1 sequence (looked up): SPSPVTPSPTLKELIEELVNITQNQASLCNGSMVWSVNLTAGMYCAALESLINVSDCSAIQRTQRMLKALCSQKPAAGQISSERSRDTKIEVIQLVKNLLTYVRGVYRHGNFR

canine IL-4 [2] = biological target: T2, canine IL-4 (canine, UniProt O77762 25-132, biotin-labeled in the Octet assay (site not stated)); assay: BLI (Octet HTX), biotin-cIL-4 on SA biosensors; ND = Binding Not Detected
T2 construct: Biotin-labeled and loaded on SA biosensors for the kinetics; unlabeled recombinant protein in the DH82 cell assay; also called cIL-4; canine Interleukin-4
T2 sequence (looked up): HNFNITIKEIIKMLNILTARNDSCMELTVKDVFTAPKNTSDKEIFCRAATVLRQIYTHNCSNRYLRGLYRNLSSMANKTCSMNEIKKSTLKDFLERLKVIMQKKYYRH
Description: (§1) The binding constants for the cFc fusion proteins provided in Tables 3 and 4 below, were determined using OCTET® HTX. All kinetics measurements were performed by OCTET® HTX using SA® biosensors and DATA ACQUISITION® 12.0 software. 10 μg/mL of biotin-labeled antigen, either canine IL-4 (cIL-4) or canine IL-13 (cIL-13) were loaded onto the SAR biosensors for 120 seconds. Next, the biosensors were placed into 1×pH 7.0 TBS/Casein buffer for 60 seconds for the blocking phase. For the association phase, antigen loaded biosensors were placed into 2-fold serial dilutions from 1 μM down to 15.6 nM of the wild-type, the bispecific, or the FcRn-mutant receptor Fc-fusions that recognized the cIL-4 or cIL-13 antigen in 1×pH 7.0 TBS/Casein buffer for 30 seconds. The last well was buffer alone and that sensor was used for reference sensor subtraction. Finally, the biosensors were placed into 1×pH 7.0 TBS/Casein buffer for 120 seconds for the dissociation phase. The results were then analyzed using Data Analysis 12.0 software and the curves were fitted using a 1:1 binding model.

canine IL-4 [3] = biological target: T2, canine IL-4; assay: cell-based or functional assay
canine IL-13 [4] = biological target: T1, canine IL-13; assay: BLI (Octet); summary table, rounded from Table 4
canine IL-13 [5] = biological target: T1, canine IL-13; assay: cell-based or functional assay; remark: listed apart in the source
canine IL-4 [6] = biological target: T2, canine IL-4; assay: cell-based or functional assay; remark: listed apart in the source
canine IL-13 [7] = biological target: T1, canine IL-13; assay: BLI (Octet HTX), biotin-cIL-13 on SA biosensors, fusion protein in solution, 1:1 fit
Description: as §1

canine IL-13 [8] = biological target: T1, canine IL-13; assay: cell-based or functional assay; remark: listed apart in the source

Molecule | EC50 of binding to canine IL-31Rα compared with the corresponding chimeric antibody (canine IL-31Rα) | fold change of the concentration that inhibits 50% of the cIL-13 mediated STAT6 phosphorylation in DH82 cells, against cIL-13Rα2-cFc (canine IL-13 [1]) | binding result (canine IL-4 [2]) | IL-4 IC50 (inhibition of cIL-4 mediated STAT6 phosphorylation in DH82 cells) (canine IL-4 [3]) | Kd (canine IL-13 [4]) | IL-13 (IC50), summary table (canine IL-13 [5]) | IL-4 (IC50), summary table (canine IL-4 [6]) | Kd (canine IL-13 [7]) | koff (canine IL-13 [7]) | kon (canine IL-13 [7]) | IL-13 IC50 (inhibition of cIL-13 mediated STAT6 phosphorylation in DH82 cells) (canine IL-13 [8])
B1 | even lower than the EC50 for the corresponding chimeric 10A12 antibody |  |  |  |  |  |  |  |  |  | 
B2 | most similar to the EC50 of the corresponding chimeric 44E2 antibody |  |  |  |  |  |  |  |  |  | 
B3 |  | ~200 fold higher | no binding (tested: 1 µM (highest concentration tested)) | 184 nM | 4 nM | 30 nM | 200 nM | 4.15 nM | 0.000135 s⁻¹ | 32600 M⁻¹ s⁻¹ | 29.4 nM
